For this experiment, the target named is T1, bovine serum albumin (bovine, UniProt P02769 25-607).
T1 construct: Negative control coating protein in the enzyme capture assay; also called BSA
The experiment is described as follows: enzyme capture assay, coated wells, APC-spiked plasma, chromogenic read-out. As for the experimental part:
As negative controls, microtiter plate wells were coated with either 5 μg/ml HPC4 monoclonal antibody or 1% bovine serum albumin (BSA) in the same buffer. The plates were then blocked for 1 hour at 37° C. or overnight at 4° C. with 200 μl of blocking buffer (coating buffer containing 1% BSA). The solutions were gently removed from the plates by vacuum.
To generate a standard curve for the quantitative measurement of APC in plasma, increasing amounts of APC (from 0 to 250 ng/ml) were spiked into normal pooled plasma containing 20 mM Hepes, pH 7.5, 2 units/ml heparin, 20 mM benzamidine, and 10 mM CaCl₂. The spiked plasma (100 μl) were transferred to the plates and incubated at room temperature for 1 hour. The wells were then washed three times with wash buffer (20 mM Hepes, pH 7.5, 150 mM NaCl, 0.05% Tween-20, and 5 mM CaCl₂). The chromogenic activity of APC was determined by the addition of 100 μl of Spectrozyme PCa (1 mM) in 20 mM Hepes, pH 7.5, 150 mM NaCl, 5 mM CaCl₂. The plates were immediately placed at 37° C., and substrate hydrolysis was monitored at 405 nm over time using a Vmax microplate reader (Molecular Devices Corp, Sunnyvale, Calif.). All samples were assayed in duplicates or triplicates.

T1 sequence (P02769 25-607 limits assumed): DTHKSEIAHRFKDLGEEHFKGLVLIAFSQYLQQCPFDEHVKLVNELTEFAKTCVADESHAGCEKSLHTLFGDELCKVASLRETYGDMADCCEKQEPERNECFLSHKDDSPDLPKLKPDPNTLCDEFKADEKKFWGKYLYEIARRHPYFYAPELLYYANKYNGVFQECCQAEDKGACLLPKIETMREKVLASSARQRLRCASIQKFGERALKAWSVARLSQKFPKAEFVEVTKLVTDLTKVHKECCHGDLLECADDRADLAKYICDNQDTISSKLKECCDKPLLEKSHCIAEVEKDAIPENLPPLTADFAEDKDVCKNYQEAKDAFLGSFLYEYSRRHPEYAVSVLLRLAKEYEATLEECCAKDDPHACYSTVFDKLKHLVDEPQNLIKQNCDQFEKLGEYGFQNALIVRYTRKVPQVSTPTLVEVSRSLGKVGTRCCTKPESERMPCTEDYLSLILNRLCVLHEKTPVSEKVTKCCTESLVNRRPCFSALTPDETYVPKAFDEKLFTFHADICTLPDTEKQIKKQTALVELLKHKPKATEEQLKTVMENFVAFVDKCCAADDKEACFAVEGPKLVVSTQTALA

B1: human activated protein C (enzyme)
chain 1: ANSFLEELRHSSLERECIEEICDFEEAKEIFQNVDDTLAFWSKHVDGDQCLVLPLEHPCASLCCGHGTCIDGIGSFSCDCRSGWEGRFCQREVSFLNCSLDNGGCTHYCLEEVGWRRCSCAPGYKLGDDLLQCHPAVKFPCGRPWKRMEKKRSHL
chain 2: LIDGKMTRRGDSPWQVVLLDSKKKLACGAVLIHPSWVLTAAHCMDESKKLLVRLGEYDLRRWEKWELDLDIKEVFVHPNYSKSTTDNDIALLHLAQPATLSQTIVPICLPDSGLAERELNQAGQETLVTGWGYHSSREKEAKRNRTFVLNFIKIPVVPHNECSEVMSNMVSENMLCAGILGDRQDACEGDSGGPMVASFHGTWFLVGLVSWGEGCGLLHNYGVYTKVSRYLDWIHGHIRDKEAPQKSWAP
notes: the whole natural protein is named as one piece; also called APC
On to B1, for which the binding result was “no binding (tested: 1% coating)”.

Values taken from patent US20040014138A1 (published 2004).
